Values quoted from earlier work as cited in patent publication US20260159592A1, “COMPOSITIONS AND METHODS FOR TARGETING AND KILLING ALPHA-V BETA-3 -POSITIVE CANCER STEM CELLS (CSCS) AND TREATING DRUG RESISTANT AND METASTATIC CANCERS” (The Regents of the University of California, priority 2019, published 2026).

Tests used:
[1] = target: T1, αvβ3 (Homo sapiens, UniProt P05106+P06756); conditions: Choi et al. (1994); Jones et al. (1996)
[2] = test system: M21 cells; conditions: ligands such as vitronectin, fibrinogen and von Willebrand factor; Cheresh and Spiro
[3] = target: T1, αvβ3; conditions: Brooks et al. Cell 79:1157-1164 (1994)
[4] = target: T1, αvβ3; conditions: Clark et al., Am. J. Pathology 148:1407-1421 (1996)

T1 sequence (P06756 31-889 limits assumed): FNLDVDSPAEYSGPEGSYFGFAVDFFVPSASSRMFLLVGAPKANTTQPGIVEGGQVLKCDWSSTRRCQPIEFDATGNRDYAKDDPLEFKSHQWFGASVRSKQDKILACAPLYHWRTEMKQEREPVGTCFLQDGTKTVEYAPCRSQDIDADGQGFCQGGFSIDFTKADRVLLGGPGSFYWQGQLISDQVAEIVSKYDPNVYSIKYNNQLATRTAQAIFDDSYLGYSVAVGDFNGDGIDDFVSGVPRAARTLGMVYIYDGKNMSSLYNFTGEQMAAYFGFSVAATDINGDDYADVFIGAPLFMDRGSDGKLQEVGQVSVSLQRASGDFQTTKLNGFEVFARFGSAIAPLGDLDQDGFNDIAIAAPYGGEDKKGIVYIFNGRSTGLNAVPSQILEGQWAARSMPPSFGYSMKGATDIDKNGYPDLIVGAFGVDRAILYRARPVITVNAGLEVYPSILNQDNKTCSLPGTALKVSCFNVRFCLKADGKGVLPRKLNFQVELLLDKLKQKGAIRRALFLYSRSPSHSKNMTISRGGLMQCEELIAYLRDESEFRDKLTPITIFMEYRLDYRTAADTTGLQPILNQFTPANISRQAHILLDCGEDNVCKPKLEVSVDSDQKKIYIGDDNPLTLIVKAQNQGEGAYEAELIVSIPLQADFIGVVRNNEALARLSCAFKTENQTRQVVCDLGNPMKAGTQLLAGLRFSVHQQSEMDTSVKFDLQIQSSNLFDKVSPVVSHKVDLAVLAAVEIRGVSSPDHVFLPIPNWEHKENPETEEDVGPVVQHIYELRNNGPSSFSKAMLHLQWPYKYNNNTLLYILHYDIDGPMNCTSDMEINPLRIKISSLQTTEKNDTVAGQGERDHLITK
T1 sequence (P06756 891-1048 limits assumed): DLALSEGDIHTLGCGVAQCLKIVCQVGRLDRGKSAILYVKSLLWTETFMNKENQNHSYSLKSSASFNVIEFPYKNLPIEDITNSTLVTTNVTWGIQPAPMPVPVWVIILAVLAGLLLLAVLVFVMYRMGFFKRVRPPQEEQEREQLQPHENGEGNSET
T1 sequence (P05106 27-788): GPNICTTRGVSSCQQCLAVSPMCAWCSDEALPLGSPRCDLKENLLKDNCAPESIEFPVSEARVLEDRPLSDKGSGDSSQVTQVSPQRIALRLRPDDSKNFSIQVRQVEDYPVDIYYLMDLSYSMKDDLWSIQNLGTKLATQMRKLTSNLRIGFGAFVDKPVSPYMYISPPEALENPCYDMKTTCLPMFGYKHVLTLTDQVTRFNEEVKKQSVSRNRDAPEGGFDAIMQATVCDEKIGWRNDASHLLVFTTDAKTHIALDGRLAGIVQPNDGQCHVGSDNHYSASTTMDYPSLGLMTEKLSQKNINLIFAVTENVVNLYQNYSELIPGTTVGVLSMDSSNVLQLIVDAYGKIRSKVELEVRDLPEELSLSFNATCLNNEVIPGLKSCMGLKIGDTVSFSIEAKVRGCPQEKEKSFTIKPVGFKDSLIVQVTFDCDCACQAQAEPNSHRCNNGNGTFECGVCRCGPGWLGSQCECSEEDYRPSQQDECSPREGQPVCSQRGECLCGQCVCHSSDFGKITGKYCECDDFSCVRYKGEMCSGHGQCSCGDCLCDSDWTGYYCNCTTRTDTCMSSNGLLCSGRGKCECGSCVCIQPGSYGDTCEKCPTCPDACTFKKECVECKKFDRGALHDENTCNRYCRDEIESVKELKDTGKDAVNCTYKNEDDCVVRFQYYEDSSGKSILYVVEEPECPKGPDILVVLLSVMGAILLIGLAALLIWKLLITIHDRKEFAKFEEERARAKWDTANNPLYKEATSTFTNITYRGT

B1: LM609: murine monoclonal antibody specific for the integrin αvβ3 (antibody, V domains shown)
VH: EVQLVESGGGLVKPGRSLRLSCAASGFAFSSYDMSWVRQIPEKRLEWVAKVSSGGGSTYYLDTVQGRFTISRDNAKNTLYLQMSSLNSEDTAMYYCARHNYGSFAYWGQGTLVTVSA
VL: DIVLTQSPATLSVTPGDSVSLSCQASQSISNHLHWYQQKSHESPRLLIKYRSQSISGIPSRFSGSGSGTDFALSINSVETEDFGMYFCQQSGSWPHTFGGGTKLEIK
Q: Which “smooth muscle cell migration such as that occurring during restenosis” value [1] does the source give for B1 here?
A: The value was “inhibitor”.

Q: And the “attachment of M21 cells to αvβ ligands” value [2]?
A: The value was “inhibits”.

Q: And the tumor induced angiogenesis [3]?
A: Its tumor induced angiogenesis is “inhibitor”.

Q: What about the “granulation tissue development in cutaneous wound” value [4] of the same molecule?
A: Its value is “inhibitor”.
